Measurements as given in publication doi:10.1101/2025.10.28.684701.

T1: MBP-CFLAP1 (AKS1) (Arabidopsis thaliana, UniProt Q9C690 1-379)
T1 sequence: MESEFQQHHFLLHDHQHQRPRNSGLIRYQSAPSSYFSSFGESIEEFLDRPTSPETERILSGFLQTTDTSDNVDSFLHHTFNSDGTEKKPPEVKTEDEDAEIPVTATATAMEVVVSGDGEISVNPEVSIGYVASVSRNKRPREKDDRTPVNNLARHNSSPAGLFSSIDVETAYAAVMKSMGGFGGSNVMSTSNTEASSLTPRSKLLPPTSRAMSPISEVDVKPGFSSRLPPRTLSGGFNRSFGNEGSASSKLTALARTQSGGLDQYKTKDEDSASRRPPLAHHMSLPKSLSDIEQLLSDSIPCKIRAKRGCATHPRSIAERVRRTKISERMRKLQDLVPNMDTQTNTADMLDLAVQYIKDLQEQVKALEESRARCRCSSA

B1: pBDG1 P1 probe (dsDNA)
DNA 1: CGTCGTTGACCTCTGCATTACAATTGTGTC
DNA 2: GACACAATTGTAATGCAGAGGTCAACGACG
B2: pCYP86A2 P1 probe (dsDNA)
DNA 1: CTACGTACAGTTGTGTTCCATTTGTTACAA
DNA 2: TTGTAACAAATGGAACACAACTGTACGTAG
B3: pCYP86A2 P2 probe (dsDNA)
DNA 1: GATATTGCAGTTGCAGCGTACACAAGTCAG
DNA 2: CTGACTTGTGTACGCTGCAACTGCAATATC
B4: pCYP86A4 P2 probe (dsDNA)
DNA 1: CCACTTTGGTTAACATTTGAGGAAT
DNA 2: ATTCCTCAAATGTTAACCAAAGTGG
B5: pCYP86A4 P1 probe (dsDNA)
DNA 1: TCGGAAAAGTACACTTGGGCTTATA
DNA 2: TATAAGCCCAAGTGTACTTTTCCGA
B6: pBDG1 P2 probe (dsDNA)
DNA 1: TGGCCACATGCCATCATATCACTTGTCCAT
DNA 2: ATGGACAAGTGATATGATGGCATGTGGCCA
B7: pCYP86A2 P3 probe (dsDNA)
DNA 1: GATCATTGGTTTACGATCACTTGCAAAGTC
DNA 2: GACTTTGCAAGTGATCGTAAACCAATGATC

What follows are binders tested against T1, MBP-CFLAP1 (AKS1) (assay: EMSA).

Binding result, binds:
B1, B2, B3, B4, B5, B6, B7
